Target: Recombinant TGF-β receptor 2 protein (UniProt P37173)
Test: SPR; Biacore T200, 25 °C; TβR2 amine-coupled on a CM5 chip (50 µg/ml in 10 mM acetate pH 4.0); peptides in PBS injected at 60 µl/min, 180 s association, 540 s dissociation; 1:1 binding model

Chain of Recombinant TGF-β receptor 2 protein (P37173 23-166): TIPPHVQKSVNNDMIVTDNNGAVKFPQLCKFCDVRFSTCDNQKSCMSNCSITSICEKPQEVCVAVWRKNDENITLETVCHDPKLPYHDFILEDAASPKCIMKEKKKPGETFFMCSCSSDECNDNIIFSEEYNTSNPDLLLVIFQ

koff: 0.00233 s⁻¹
Substance: KP12 (peptide)

From publication PMC8782923, “A Klotho-derived peptide protects against kidney fibrosis by targeting TGF-β signaling” (Nature Communications, 2022)
